Broadly, the Kd is the concentration at which binding is half-saturated.

Data set [1] has as its target PTP-σ_D1D2 (human), Trx-His6-tagged (human). Put plainly: ITC; VP-ITC at 25 °C; 50 mM Tris-HCl pH 7.5, 100 mM NaCl, 1 mM EDTA, 1 mM DTT; liprin-α fragments at 200 μM injected into LAR-RPTP fragments at 20 μM; one-site binding model; N-terminal tags kept. In general terms: Isothermal titration calorimetry measures the heat released or taken up as one component is titrated into another.

Data set [2] concerns the target PTP-δ_D1D2 (human), Trx-His6-tagged (human). The data set is described as above.
Data set [3] addresses T1, liprin-α2_SAM123 (C-terminal SAM repeats of human liprin-α2), Trx-His6-tagged (human, UniProt O75334 866-1193).
T1 construct: liprin-α2, human, the C-terminal three SAM domains (SAM123); source: E. coli Rosetta BL21(DE3), purified (Ni-NTA, Superdex-200); not shown: Trx, N-terminal, kept; His6, N-terminal, kept
The data set is described as above. The following applies: both partners purified.

Data set [4] deals with the molecule itself. Put plainly: cell-based or functional assay.

Sequence of PTP-σ_D1D2 (human), Trx-His6-tagged (human) (Q13332 1393-1948): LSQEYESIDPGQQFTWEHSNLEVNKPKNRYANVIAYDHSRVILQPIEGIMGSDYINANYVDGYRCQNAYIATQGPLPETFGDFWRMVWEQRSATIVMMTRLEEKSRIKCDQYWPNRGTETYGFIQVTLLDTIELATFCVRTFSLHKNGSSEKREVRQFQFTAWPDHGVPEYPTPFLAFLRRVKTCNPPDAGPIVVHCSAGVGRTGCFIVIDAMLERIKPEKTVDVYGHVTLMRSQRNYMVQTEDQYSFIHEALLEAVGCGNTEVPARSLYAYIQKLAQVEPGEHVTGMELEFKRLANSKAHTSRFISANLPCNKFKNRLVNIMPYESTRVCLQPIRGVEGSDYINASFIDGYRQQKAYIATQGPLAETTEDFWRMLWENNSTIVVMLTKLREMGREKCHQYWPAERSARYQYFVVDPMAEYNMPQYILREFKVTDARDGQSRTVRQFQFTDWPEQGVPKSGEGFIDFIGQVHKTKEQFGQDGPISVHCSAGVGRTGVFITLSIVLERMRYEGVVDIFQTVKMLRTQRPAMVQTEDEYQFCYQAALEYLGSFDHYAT
T1 sequence (O75334 866-1193): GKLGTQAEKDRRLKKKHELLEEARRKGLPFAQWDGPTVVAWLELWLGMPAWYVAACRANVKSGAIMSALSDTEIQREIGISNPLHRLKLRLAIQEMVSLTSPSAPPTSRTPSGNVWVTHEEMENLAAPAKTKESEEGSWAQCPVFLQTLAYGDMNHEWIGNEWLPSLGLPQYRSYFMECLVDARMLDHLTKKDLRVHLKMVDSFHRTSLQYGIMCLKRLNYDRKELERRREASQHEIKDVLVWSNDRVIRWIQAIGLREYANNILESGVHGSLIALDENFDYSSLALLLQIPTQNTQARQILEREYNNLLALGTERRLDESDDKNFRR
Sequence of PTP-δ_D1D2 (human), Trx-His6-tagged (human) (P23468 1357-1912, stated change not applied): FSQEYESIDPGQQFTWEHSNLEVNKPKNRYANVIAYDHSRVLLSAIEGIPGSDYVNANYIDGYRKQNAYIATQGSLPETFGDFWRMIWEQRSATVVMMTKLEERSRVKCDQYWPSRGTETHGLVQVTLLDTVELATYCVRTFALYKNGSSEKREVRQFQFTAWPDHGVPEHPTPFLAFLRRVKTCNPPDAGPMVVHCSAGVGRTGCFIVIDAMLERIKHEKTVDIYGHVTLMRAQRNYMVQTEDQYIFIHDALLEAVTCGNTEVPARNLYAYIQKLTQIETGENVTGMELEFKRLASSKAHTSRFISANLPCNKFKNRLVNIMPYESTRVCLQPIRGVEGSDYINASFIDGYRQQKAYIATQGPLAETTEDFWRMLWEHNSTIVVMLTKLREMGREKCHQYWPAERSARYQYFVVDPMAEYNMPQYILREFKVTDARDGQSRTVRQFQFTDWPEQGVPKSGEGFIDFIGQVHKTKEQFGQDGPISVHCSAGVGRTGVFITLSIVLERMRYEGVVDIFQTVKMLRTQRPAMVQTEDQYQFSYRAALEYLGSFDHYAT

Turning to “α2_SAM123ΔInsertion (liprin-α2_SAM123 with the insertion loop connecting SAM1 and SAM2 deleted) (from UniProt O75334 866-1193) (domain or fragment)”, the results for the Kd in data set [1] and in data set [2] were 2.4 µM and 6.4 µM, respectively.

B1: LAR_D2 (D2 domain of human LAR), His6-SUMO-tagged (domain or fragment, UniProt P10586 1620-1907, looked up)
chain: LYAHIQKLGQVPPGESVTAMELEFKLLASSKAHTSRFISANLPCNKFKNRLVNIMPYELTRVCLQPIRGVEGSDYINASFLDGYRQQKAYIATQGPLAESTEDFWRMLWEHNSTIIVMLTKLREMGREKCHQYWPAERSARYQYFVVDPMAEYNMPQYILREFKVTDARDGQSRTIRQFQFTDWPEQGVPKTGEGFIDFIGQVHKTKEQFGQDGPITVHCSAGVGRTGVFITLSIVLERMRYEGVVDMFQTVKTLRTQRPAMVQTEDQYQLCYRAALEYLGSFDHYAT
notes: also called D2 domain alone; source: E. coli Rosetta BL21(DE3), purified (Ni-NTA, Superdex-200); not shown: His6, N-terminal, kept; SUMO, N-terminal, kept
On to B1, for which the affinity in data set [3], expressed as Kd, was 14 ± 1 µM.

B2: LAR_D1D2 L1539C/T1593C double-cysteine mutant (domain or fragment, human)
chain: IPITDLADNIERLKANDGLKFSQEYESIDPGQQFTWENSNLEVNKPKNRYANVIAYDHSRVILTSIDGVPGSDYINANYIDGYRKQNAYIATQGPLPETMGDFWRMVWEQRTATVVMMTRLEEKSRVKCDQYWPARGTETCGLIQVTLLDTVELATYTVRTFALHKSGSSEKRELRQFQFMAWPDHGVPEYPTPILAFLRRVKACNPCDAGPMVVHCSAGVGRTGCFIVIDAMLERMKHEKTVDIYGHVTCMRSQRNYMVQCEDQYVFIHEALLEAATCGHTEVPARNLYAHIQKLGQVPPGESVTAMELEFKLLASSKAHTSRFISANLPCNKFKNRLVNIMPYELTRVCLQPIRGVEGSDYINASFLDGYRQQKAYIATQGPLAESTEDFWRMLWEHNSTIIVMLTKLREMGREKCHQYWPAERSARYQYFVVDPMAEYNMPQYILREFKVTDARDGQSRTIRQFQFTDWPEQGVPKTGEGFIDFIGQVHKTKEQFGQDGPITVHCSAGVGRTGVFITLSIVLERMRYEGVVDMFQTVKTLRTQRPAMVQTEDQYQLCYRAALEYLGSFDHYAT
modifications: intermolecular disulfide bridges between the introduced cysteines (without reducing reagents)
In the case of B2, in data set [4], the “in vitro phosphatase activity of the LAR_D1D2 dimer relative to the monomer fraction, with 2 mM DTT in the reaction buffer” value is roughly 80% and the “in vitro phosphatase activity of the disulfide-linked LAR_D1D2 dimer relative to the monomeric mutant, reaction buffer without DTT” value was roughly 40%.

These data come from publication PMC6954185 (Nature Communications, 2020).
